# Reference: patent publication US10538802B2, “Polypeptide substrate for the detection of von Williebrand factor cleaving protease ADAMTS13” (IMMUCOR GTI DIAGNOSTICS, INC., priority 2011, dated 2020)
# Biological target: T1, ADAMTS13 (Homo sapiens, UniProt Q76LX8)
# T1 construct: tissue Gen-Probe GTI Diagnostics (ATS-13 kit calibrators, controls and proficiency samples); George King Biomedical Inc. (FACT, A-FACT, B-FACT plasmas) ATS-13; host or cells: plasma
# T1 sequence (Q76LX8 75-1427): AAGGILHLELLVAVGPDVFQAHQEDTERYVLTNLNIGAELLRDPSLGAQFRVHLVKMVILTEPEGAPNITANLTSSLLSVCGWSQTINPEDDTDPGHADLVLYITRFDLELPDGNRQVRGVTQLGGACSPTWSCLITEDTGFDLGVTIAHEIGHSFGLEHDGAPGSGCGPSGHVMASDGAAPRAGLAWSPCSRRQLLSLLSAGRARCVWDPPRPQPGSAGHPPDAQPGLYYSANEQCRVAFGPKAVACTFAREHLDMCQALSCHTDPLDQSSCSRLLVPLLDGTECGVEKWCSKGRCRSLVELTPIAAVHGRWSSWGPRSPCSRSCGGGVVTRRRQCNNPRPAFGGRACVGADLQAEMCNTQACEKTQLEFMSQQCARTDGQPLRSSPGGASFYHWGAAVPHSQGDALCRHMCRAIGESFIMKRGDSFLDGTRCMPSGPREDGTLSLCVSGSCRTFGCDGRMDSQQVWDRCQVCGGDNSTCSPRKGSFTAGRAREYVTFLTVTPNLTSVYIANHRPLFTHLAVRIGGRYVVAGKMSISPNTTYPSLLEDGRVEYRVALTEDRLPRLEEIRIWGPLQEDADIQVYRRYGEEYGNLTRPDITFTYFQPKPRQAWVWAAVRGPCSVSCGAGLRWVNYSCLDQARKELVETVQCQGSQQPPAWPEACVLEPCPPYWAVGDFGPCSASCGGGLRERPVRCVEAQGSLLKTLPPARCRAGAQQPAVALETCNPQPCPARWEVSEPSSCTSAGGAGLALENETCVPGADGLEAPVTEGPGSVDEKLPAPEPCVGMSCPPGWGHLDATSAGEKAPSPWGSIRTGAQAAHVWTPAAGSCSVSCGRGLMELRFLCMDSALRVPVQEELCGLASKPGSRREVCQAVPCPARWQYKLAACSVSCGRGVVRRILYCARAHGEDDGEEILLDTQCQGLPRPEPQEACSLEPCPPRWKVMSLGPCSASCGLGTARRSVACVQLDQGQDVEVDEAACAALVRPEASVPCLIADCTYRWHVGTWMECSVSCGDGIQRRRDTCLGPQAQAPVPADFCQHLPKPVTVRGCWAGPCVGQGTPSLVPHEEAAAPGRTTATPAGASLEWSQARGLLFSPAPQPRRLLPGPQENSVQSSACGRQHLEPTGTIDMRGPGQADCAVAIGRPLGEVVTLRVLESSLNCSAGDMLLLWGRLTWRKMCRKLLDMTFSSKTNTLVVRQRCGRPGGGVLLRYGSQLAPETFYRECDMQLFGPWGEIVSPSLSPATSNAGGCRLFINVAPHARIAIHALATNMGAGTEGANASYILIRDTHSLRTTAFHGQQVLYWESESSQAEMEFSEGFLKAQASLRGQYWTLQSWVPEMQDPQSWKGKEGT
# Assay: ADAMTS13 activity assay with fluorogenic (FRET) polypeptide substrate and diluted plasma samples
# Assay type: biochemical
# Method: The procedure in this example was performed substantially as described in Kokame, K., Y. Nobe, Y. Kokubo, A. Okayama, and T. Miyata. 2005. FRETS-VWF73, a first fluorogenic substrate for ADAMTS13 assay. Br. J. Haematol. 129:93-100, but using SEQ ID NO: 1 in place of the 73 amino acid substrate described therein. The FRETS-VWF73 substrate solution was dissolved in 25% dimethyl sulphoxide/water to prepare the 100 microM stock solution. The GTI FRET4 SEQ ID NO: 1 was dissolved in 100% DMSO. Both substrates were diluted to equal concentrations using ATS-13 substrate buffer (Gen-Probe GT1 Diagnostics, Inc., U.S.A., Cat#ATS-13).
# Plasma samples were diluted according to the ATS-13 Direction Insert using ATS-13 specimen diluent (Gen-Probe GTI Diagnostics, Inc., U.S.A., Cat# ATS-13). The diluted plasma samples were mixed with the diluted substrate and the fluorescence was read at 0, 5, 10, 15, 20, 30, 45 minutes using a Biotek FLX800 at the appropriate excitation and emission wavelengths for each substrate.
# The fluorophore-quencher pair in the SEQ ID NO: 1 polypeptide substrate is FAM-5/TQ 2^Tm (Ex 485±20; Em 528±20; AAT Bioquest, Inc. Sunnyvale, Calif. U.S.A.). The fluorophore and quencher pair of FRETS-VWF73 (Nma/Dnp) described in Kokame has been substituted with FAM-5 and TQ_2 respectively in GTI_FRET4 SEQ ID NO: 1. Furthermore, in the SEQ ID NO: 1 polypeptide the position of the fluorophore (FAM-5) and quencher (TQ_2) has been swapped relative to the position of the fluorophore and quencher of the FRETS-VWF73 construct. Therefore, for GTI_FRET4 SEQ ID NO: 1, attachment of the fluorophore (FAM-5) occurs by substituting asparagine with cystine at position 15. The quencher (TQ_2) was attached by substituting glutamine with lysine at position 4 (FIG. 2 and Table 4).
# For this experiment, substrate concentration and fluorescence reader settings determined on the previous experiment are used. The specimens tested (listed in Table 3), include a panel of proficiency samples prepared for use with ATS-13 (Gen-Probe GTI Diagnostics, Inc., U.S.A., Cat# ATS-13) which included samples with normal or deficient ADAMTS13 activity levels. In addition, six Factor Assay ConTrol plasma were used (2 FACT, 2 A-FACT and 2 B-FACT, from George King Biomedical Inc., Kansas, USA). The assays for the SEQ ID NO: 1 substrate and for the prior art FRETS-VWF73 assay were performed generally as according to the procedure described in Example 1. Substrate is prepared according to the conditions used for initial testing of the substrate, which prepared the molar amount of SEQ ID NO: 1 polypeptide substrate used in the assay to be equivalent to the molar amount of FRETS-VWF73 used in the prior art. The […] assays were read at 0, 5, 10, 15, 20, 30, 45 minutes.
# Testing of substrate for cleavability by ADAMTS13 is determined as is generally described in Example 1. […]
sequence,measurement,setting,value
DREKAPNLVYMVTGCPASDEIKRLPGDIQVVPIEVIGWPNAPILIQDEETLPREAPDLVLQR [GTI_FRET4],% Normal ADAMTS13 Values Calculated Using GTI_FRET4 Substrate,"sample Calibrator D, incubation 15 Minutes",58 % Normal
same,% Normal ADAMTS13 Values Calculated Using GTI_FRET4 Substrate,"sample Calibrator D, incubation 30 Minutes",59 % Normal
same,% Normal ADAMTS13 Values Calculated Using GTI_FRET4 Substrate,"sample Calibrator D, incubation 45 Minutes",59 % Normal
same,% Normal ADAMTS13 Values Calculated Using GTI_FRET4 Substrate,"sample Calibrator D, incubation 60 Minutes",60 % Normal
same,% Normal ADAMTS13 Values Calculated Using GTI_FRET4 Substrate,"sample Calibrator D, incubation 75 Minutes",61 % Normal
same,% Normal ADAMTS13 Values Calculated Using GTI_FRET4 Substrate,"sample Calibrator D, incubation 90 Minutes",62 % Normal
same,Increase in Fluorescence Values (X minute - 0 minute Reading),"sample Calibrator E, 15 min","18,718 RFU"
same,Increase in Fluorescence Values (X minute - 0 minute Reading),"sample Calibrator E, 30 min","35,085 RFU"
same,Increase in Fluorescence Values (X minute - 0 minute Reading),"sample Calibrator E, 45 min","49,418 RFU"
same,Increase in Fluorescence Values (X minute - 0 minute Reading),"sample Calibrator E, 60 min","61,068 RFU"
same,Increase in Fluorescence Values (X minute - 0 minute Reading),"sample Calibrator E, 75 min","70,603 RFU"
same,Increase in Fluorescence Values (X minute - 0 minute Reading),"sample Calibrator E, 90 min","82,999 RFU"
same,% Normal ADAMTS13 Values Calculated Using GTI_FRET4 Substrate,"sample Calibrator E, incubation 15 Minutes",101 % Normal
same,% Normal ADAMTS13 Values Calculated Using GTI_FRET4 Substrate,"sample Calibrator E, incubation 30 Minutes",101 % Normal
same,% Normal ADAMTS13 Values Calculated Using GTI_FRET4 Substrate,"sample Calibrator E, incubation 45 Minutes",100 % Normal
same,% Normal ADAMTS13 Values Calculated Using GTI_FRET4 Substrate,"sample Calibrator E, incubation 60 Minutes",100 % Normal
same,% Normal ADAMTS13 Values Calculated Using GTI_FRET4 Substrate,"sample Calibrator E, incubation 75 Minutes",98 % Normal
same,% Normal ADAMTS13 Values Calculated Using GTI_FRET4 Substrate,"sample Calibrator E, incubation 90 Minutes",98 % Normal
same,Increase in Fluorescence Values (X minute - 0 minute Reading),"sample MON110707, 15 min","17,881 RFU"
same,Increase in Fluorescence Values (X minute - 0 minute Reading),"sample MON110707, 30 min","33,432 RFU"
same,Increase in Fluorescence Values (X minute - 0 minute Reading),"sample MON110707, 45 min","46,848 RFU"
same,Increase in Fluorescence Values (X minute - 0 minute Reading),"sample MON110707, 60 min","58,747 RFU"
same,Increase in Fluorescence Values (X minute - 0 minute Reading),"sample MON110707, 75 min","68,370 RFU"
same,Increase in Fluorescence Values (X minute - 0 minute Reading),"sample MON110707, 90 min","78,371 RFU"
same,% Normal ADAMTS13 Values Calculated Using GTI_FRET4 Substrate,"sample MON110707, incubation 15 Minutes",97 % Normal
same,% Normal ADAMTS13 Values Calculated Using GTI_FRET4 Substrate,"sample MON110707, incubation 30 Minutes",96 % Normal
same,% Normal ADAMTS13 Values Calculated Using GTI_FRET4 Substrate,"sample MON110707, incubation 45 Minutes",95 % Normal
same,% Normal ADAMTS13 Values Calculated Using GTI_FRET4 Substrate,"sample MON110707, incubation 60 Minutes",96 % Normal
same,% Normal ADAMTS13 Values Calculated Using GTI_FRET4 Substrate,"sample MON110707, incubation 75 Minutes",95 % Normal
same,% Normal ADAMTS13 Values Calculated Using GTI_FRET4 Substrate,"sample MON110707, incubation 90 Minutes",92 % Normal
same,Increase in Fluorescence Values (X minute - 0 minute Reading),"sample Positive Control High, 15 min","9,146 RFU"
same,Increase in Fluorescence Values (X minute - 0 minute Reading),"sample Positive Control High, 30 min","17,281 RFU"
same,Increase in Fluorescence Values (X minute - 0 minute Reading),"sample Positive Control High, 45 min","24,859 RFU"
same,Increase in Fluorescence Values (X minute - 0 minute Reading),"sample Positive Control High, 60 min","31,857 RFU"
same,Increase in Fluorescence Values (X minute - 0 minute Reading),"sample Positive Control High, 75 min","39,838 RFU"
same,Increase in Fluorescence Values (X minute - 0 minute Reading),"sample Positive Control High, 90 min","47,473 RFU"
same,% Normal ADAMTS13 Values Calculated Using GTI_FRET4 Substrate,"sample Positive Control High, incubation 15 Minutes",48 % Normal
same,% Normal ADAMTS13 Values Calculated Using GTI_FRET4 Substrate,"sample Positive Control High, incubation 30 Minutes",49 % Normal
same,% Normal ADAMTS13 Values Calculated Using GTI_FRET4 Substrate,"sample Positive Control High, incubation 45 Minutes",50 % Normal
